Four molecules from US20240092913A1 (HANALL BIOPHARMA, published 2024) can be followed below.

Assay [1] has as its target T1, water-soluble hFcRn (human, UniProt P55899 24-297; P61769 21-119, limits assumed).
T1 construct: also called shFcRn; human FcRn
Briefly: SPR (Proteon XPR36, GLC chip), shFcRn immobilised, antibody as analyte, pH 6.0, 1:1 Langmuir, mean of six runs. On the procedure:
(§1) In kinetic analysis, a 1:1 Langmuir binding model was used, the analysis was repeated six times at each of pH 6.0 and pH 7.4, and the mean KD value was calculated. […], the chip was activated under the conditions of EDAC/NHS 0.5×, 30 μL/min and 300 sec. For immobilization, shFcRn was diluted in acetate buffer (pH 5.5) to concentrations of 2 μg/mL and 250 μL, and the dilution was allowed to flow on the chip at a rate of 30 μL/min. When an immobilization level of 200-300 RU was reached, the reaction was stopped. Then, deactivation was performed using ethanolamine at a rate of 30 μL/min for 300 sec. […] Sample dilution was performed using 1× PBST (pH 7.4) or 1× PBST (pH 6.0) at each pH. For sample analysis, association was performed at 50 μL/min for 200 sec, and the dissociation step was performed at 50 μL/min for 600 sec, after which regeneration was performed using glycine buffer (pH 2.5) at 100 μL/min for 18 sec. The kinetic analysis of each sample was repeated six times, and then the mean antigen binding affinity (KD) was measured.

The target of assay [2] is T1, water-soluble hFcRn. In words: SPR (Proteon XPR36, GLC chip), shFcRn immobilised, antibody as analyte, pH 7.4, 1:1 Langmuir, mean of six runs. How it is done:
as §1

The target in assay [3] is T2, human FcRn on human FcRn-expressing stable HEK293 cells (human, UniProt P55899 24-365; P61769 21-119).
T2 construct: also called hFcRn-expressing HEK293 cells; human FcRn-overexpressing HEK293 cells
T2 sequence (P55899 24-365 limits assumed, chain 1 of 2): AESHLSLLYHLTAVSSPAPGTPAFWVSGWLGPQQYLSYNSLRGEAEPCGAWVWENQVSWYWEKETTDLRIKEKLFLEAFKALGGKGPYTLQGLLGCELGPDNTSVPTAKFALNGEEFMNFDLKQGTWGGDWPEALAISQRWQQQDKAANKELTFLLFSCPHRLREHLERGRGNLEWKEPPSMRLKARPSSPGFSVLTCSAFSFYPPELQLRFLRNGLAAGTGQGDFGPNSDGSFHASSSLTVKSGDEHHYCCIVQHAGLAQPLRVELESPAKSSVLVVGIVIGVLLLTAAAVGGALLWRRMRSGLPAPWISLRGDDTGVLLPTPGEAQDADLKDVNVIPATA
T2 sequence (P61769 21-119 limits assumed, chain 2 of 2): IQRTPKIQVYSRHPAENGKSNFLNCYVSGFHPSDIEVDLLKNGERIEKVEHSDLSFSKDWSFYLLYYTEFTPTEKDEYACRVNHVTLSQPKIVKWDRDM
In words: FACS on human FcRn-expressing stable HEK293 cells, pH 7.4, 0.11-250 nM antibody, 4 parameter logistic regression of MFI. On the procedure: The plate was mounted in a rotator at 4° C. and rotated at an angle of 15° and 10 rpm for 90 minutes. […] The FACS measurement was performed under the following conditions: FS 108 volts, SS 426 volts, FL1 324 volts, FL2 300 volts. These cells were analyzed by FACS using BD FACSDiva™ v6.1.3 software (BD Bioscience).

Assay [4] concerns the target T2, human FcRn on human FcRn-expressing …. In words: FACS competition on human FcRn-overexpressing HEK293 cells, pH 6.0, blocking of Alexa488-hIgG1, antibody 0.01-200 nM, 4-parameter logistic regression. On the procedure:
Each antibody sample was diluted to 400 nM, and then diluted by 4-fold serial dilution in a 96-well v-bottom plate. 50 μL of the sample diluted to a final concentration of 200 nM to 0.01 nM was added to each well. […] Finally, 40 μL of cells diluted to a cell concentration of 2.5×10⁶ cells/mL were added to each well and suspended. The plate was mounted in a rotator at 4° C. and rotated at an angle of 15° and 10 rpm for 90 minutes. After completion of the reaction, the plate was taken out of the rotator, and centrifuged at 2000 rpm for 10 minutes to remove the supernatant. 100 μL of reaction buffer was added to each well to dissolve the cell pellets, and the plate was transferred into a blue test tube. Then, 200 μL of reaction buffer was added to each well, and measurement was performed in FACS. The FACS measurement was performed under the following conditions: FS 108 volts, SS 426 volts, FL1 324 volts, FL2 300 volts. These cells were analyzed by FACS using BD FACSDiva™ v6.1.3 software (BD Bioscience). The results were expressed as mean fluorescence intensity (MFI). The MFI of the test group was processed after subtracting the measured MFI value of the cells alone (background signal).

T1 sequence (P55899 24-297 limits assumed, chain 1 of 2): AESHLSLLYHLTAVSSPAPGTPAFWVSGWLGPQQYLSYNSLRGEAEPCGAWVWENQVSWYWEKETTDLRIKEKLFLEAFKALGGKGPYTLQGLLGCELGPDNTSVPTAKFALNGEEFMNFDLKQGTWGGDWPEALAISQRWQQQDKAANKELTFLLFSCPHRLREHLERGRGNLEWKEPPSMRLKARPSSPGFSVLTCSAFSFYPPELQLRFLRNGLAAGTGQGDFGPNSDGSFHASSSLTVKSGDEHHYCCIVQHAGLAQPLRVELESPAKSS
T1 sequence (P61769 21-119 limits assumed, chain 2 of 2): as the sequence (P61769 21-119 limits assumed, chain 2 of 2) above

B1: HL161D antibody (antibody, human IgG1, V domains shown)
VH: QLQLQESGPGLVKPSETLSLTCTVSGGSISSSSYYWGWIRQPPGKGLEWIGNIYYSGSTYYNPSLMSRVTISVDTSKNQFSLKLSSVTAADTAVYYCARQLSYNWNDRLFDYWGQGTLVTVSS
VL: SYELTQPLSVSVALGQTARITCGGNNIGSKNVHWYQQKPGQAPVLVIYRDSNRPSGIPERFSGSNSGNTATLTISRAQAGDEADYYCQVWDSSTVVFGGGTKLTVLGQPKAAPSVTL
notes: the VL entry runs a few residues into the constant region
On to B1, for which, in assay [1], binding was characterised by a dissociation constant (Kd) of 1.43 nM, the koff came to 0.00138 s⁻¹ and the association rate constant (kon) was 970000 M⁻¹ s⁻¹. Moreover, in assay [2], the Kd is 1.78 nM, the koff came to 0.00124 s⁻¹ and the kon came out at 699000 M⁻¹ s⁻¹.

B2: HL161C antibody (antibody, human IgG1, V domains shown)
VH: QVQLVQSGAEVKKPGASVKVSCKASGYTFTGCYMHWVRQAPGQGLEWMGRINPNSGGTNYAQKFQGRVTMTRDTSISTAYMDLSRLRSDDTAVYYCARDYSGWSFDYWGQGTLVTVSS
VL: DIQMTQSPSSLSASVGDRVTITCRASQGISNYLAWFQQKPGKAPKSLIYAASSLQSGVPSKFSGSGSGTDFTLTISSLQSEDFATYYCQQYDSYPPTFGGGTKVEIKRTVAAPSVFI
In assay [1], B2 came in with a Kd of 0.191 nM, a koff of 0.000332 s⁻¹ and a kon of 1.74e+06 M⁻¹ s⁻¹. In addition, in assay [2], binding was put at a Kd of 0.232 nM, the koff is 0.000316 s⁻¹ and the kon amounted to 1.36e+06 M⁻¹ s⁻¹.

B3: HL161A antibody (antibody, human IgG1, V domains shown)
VH: EVQLLESGGGLVQPGGSLRLSCAASEFTFGSCVMTWVRQAPGKGLEWVSVISGSGGSTYYADSVKGRFTISRDNSKNTLYLQMNSLRAEDTAVYYCAKTPWWLRSPFFDYWGQGTLVTVSS
VL: SYVLTQPPSVSVAPGQTARITCGGNNIGSTSVHWYQQKPGQAPVLVVHDDSDRPSGIPERFSGSNSGNTATLTISRVEAGDEADYYCQVRDSSSDHVIFGGGTKLTVLGQPKAAPSVTL
In assay [1], B3 gave a dissociation constant Kd of 0.18 nM, a koff of 0.000326 s⁻¹ and an on-rate constant (kon) of 1.81e+06 M⁻¹ s⁻¹. In assay [2], this molecule gave a dissociation constant (Kd) of 0.247 nM, a koff of 0.000327 s⁻¹ and an association rate constant (kon) of 1.32e+06 M⁻¹ s⁻¹. This molecule gave a concentration giving a half-maximal response (EC50) in assay [3] of 2.46 nM. Moreover, the half-inhibitory concentration (IC50) in assay [4] was 0.92 nM.

B4: HL161B antibody (antibody, V domains shown)
VH: QLLLQESGPGLVKPSETLSLTCTVSGGSLSSSFSYWVWIRQPPGKGLEWIGTIYYSGNTYYNPSLKSRLTISVDTSKNHFSLNLSSVTAADTAVYYCARRAGILTGYLDSWGQGTLVTVSS
VL: SYVLTQSPSVSVAPGQTARITCGGNNIGSKSVHWYQQKPGQAPVLVVYDDSDRPSGIPERFSASNSGNTATLTISRVEAGDEADYYCQVWDSSSDHVVFGGGTKLTVLGQPKAAPSVTL
notes: as for B1
In the case of B4, in assay [1], the equilibrium dissociation constant (Kd) was determined as 0.807 nM, the koff amounted to 0.000735 s⁻¹ and the kon came to 912000 M⁻¹ s⁻¹. Moreover, in assay [2], binding was characterised by a dissociation constant (Kd) of 1.76 nM, the koff turned out to be 0.00125 s⁻¹ and the kon was found to be 710000 M⁻¹ s⁻¹. The molecule also yielded a 50% effective concentration (EC50) in assay [3] of 1.2 nM. The molecule further showed an IC50 in assay [4] of 2.24 nM.

Broadly, the Kd is the free concentration of one partner at which half of the binding sites on the other are occupied at equilibrium, for simple one-to-one binding. A high value points to lower affinity. In general, koff refers to the rate constant with which the complex falls apart. Lower therefore signals a long-lived complex. For orientation: kon means the second-order rate constant of association. High values mean fast association, low ones slow association. By EC50 is commonly meant the concentration that produces a half-maximal response. A high value points to a need for much substance. By IC50 is commonly meant the midpoint of a concentration-inhibition curve.
